Data as given in publication PMC7991749.

Legend:
[1] = target: ctXPD (XPD helicase from Chaetomium thermophilum) (Chaetomium thermophilum)
[2] = system: ctXPD;ctp44 (Chaetomium thermophilum;Chaetomium thermophilum); experiment: fluorescence anisotropy; details: FA: 20 mM HEPES pH 7.5, 30 mM KCl, 5 mM MgCl2, 1 mM TCEP, 10 nM DNA, room temperature, photo-cross-linking: 20 mM HEPES pH 7.5, 50 mM KCl
[3] = system: ctXPD;ctp44 (Chaetomium thermophilum;Chaetomium thermophilum); experiment: photo-cross-linking; details: 5 mM Mg2+, 2.5 mM ATP, FA: 20 mM HEPES pH 7.5, 30 mM KCl, 5 mM MgCl2, 1 mM TCEP, 10 nM DNA, room temperature, photo-cross-linking: 20 mM HEPES pH 7.5, 50 mM KCl
[4] = system: ctXPD (Chaetomium thermophilum); experiment: photo-cross-linking; details: 5 mM Mg2+, FA: 20 mM HEPES pH 7.5, 30 mM KCl, 5 mM MgCl2, 1 mM TCEP, 10 nM DNA, photo-cross-linking: 20 mM HEPES pH 7.5, 50 mM KCl

Substance: ctp44 (1-285) (domain or fragment)
- ATPase activity of ctXPD (NADH-coupled assay, 37°C): activation by 4 to 1000 nM ctp44 titrated onto 250 nM ctXPD in the presence of 1 μM ssDNA [1]: 82 nM

Substance: ATGCCTACAGCAAGCCTATGCCTACAGCATCCAGGGCGACGGTGCCGAG [ss-Fab(g)-dC 49]
- K half ([2]; 5 mM Mg2+, 2 mM ATP, EC50, position 37 (B) = Fab(g)-dC): 268 nM

Substance: AAGCCTATGCCTACAGCATCCAGGGCGACGGTGCCGAGGATGACGATGAGCGCA / TGCGCTCATCGTCATCCTCGGCACCGTCGCCCTGGATG [fs-Fab(g)-dC 54/38]
- binding signal (fold vs same mixture without ATP) ([3]; ctXPD adduct, position 26 of strand 1 (B) = Fab(g)-dC): 1.8
- binding signal (fold vs same mixture without ATP) ([3]; ctp44 adduct, position 26 of strand 1 (B) = Fab(g)-dC): 2
- binding signal (fold vs same probe without ATP) ([4]; 2.5 mM ATP, no ctp44, position 26 of strand 1 (B) = Fab(g)-dC, room temperature): 2.1

Substance: ATGCCTACAGCAAGCCTATGCCTACAGCATCCAGGGNGACGGTGCCGAG [ss-nAnt 49 (ss-Ant)]
- K half ([2]; position 37 (N; printed A) = nAnt, N-[6-(9-anthracenylcarbamoyl)hexanoyl]-3-amino-1,2-propanediol, non-nucleoside lesion): 63 nM

Substance: ATGCCTACAGCAAGCCTATGCCTACAGCATCCAGGGNGACGGTGCCGAG [ss-nFlu 49]
- K half ([2]; position 37 (N; printed F) = nFlu lesion): 3 nM

Substance: ATGCCTACAGCAAGCCTATGCCTACAGCATCCAGGGCGACGGTGCCGAG [ss-um 49]
- K half ([2]; none): 500 nM

Substance: AAGCCTATGCCTACAGCATCCAGGGCGACGGTGCCGAGGATGACGATGAGCGCA [ss-Fab(g)-dC 54]
- binding signal (fold cross-linking vs ds probe) ([4]; position 26 (B) = Fab(g)-dC, room temperature, 5 mM MgCl2, 1 mM …): 3

Substance: ATGCCTACAGCAAGCCTATGCCTACAGCATCCAGGGCGACGGTGCCGAG [ss-Fap-dC 49]
- K half ([2]; 5 mM Mg2+, 2 mM ATP, EC50, Fap-dC at position 37 (position inferred from parallel oligos)): 307 nM
- K half ([2]; Fap-dC at position 37 (position inferred from parallel oligos)): 200 nM

Substance: AAGCCTATGCCTACAGCATCCAGGGCGACGGTGCCGAGGATGACGATGAGCGCA / TGCGCTCATCGTCATCCTCGGCACCGTCGCCCTGGATG [fs-Fap-dC 54/38]
- binding signal (fold vs same mixture without ATP) ([3]; ctXPD adduct, Fap-dC at position 26 of strand 1 (position inferred from parallel oligos)): 2.6
- binding signal (fold vs same mixture without ATP) ([3]; ctp44 adduct, Fap-dC at position 26 of strand 1 (position inferred from parallel oligos)): 2
- binding signal (relative cross-linking (reference)) ([4]; no ATP, no ctp44, Fap-dC at position 26 of strand 1 (position inferred from parallel oligos), room temperature): 1

Substance: AAGCCTATGCCTACAGCATCCAGGGCGACGGTGCCGAGGATGACGATGAGCGCA [ss-Fap-dC 54]
- binding signal (fold cross-linking vs ds probe) ([4]; Fap-dC at position 26 (position inferred from parallel oligos), room …): 3
